Experiments:
[1] = target: T1, recombinant human DLL4 (Cat# 1506-D4/CF, R&D Systems) (human, UniProt Q9NR61 27-529); assay: SPR (ProteOn), hDLL4 amine-coupled on chip
T1 construct: Bought protein; also called hDLL4; rHuman DLL4
Method: In this example, the binding affinities of selected anti-DLL4 Fabs to recombinant human DLL4 (hDLL4, Cat# 1506-D4/CF, R&D Systems) were analyzed using Surface Plasmon Resonance (SPR) (Biosensor Tools, Salt Lake City, Utah). The Fabs analyzed include germline-derived antibodies and germline-modified DLL4 antibodies. Recombinant hDLL4 was immobilized on a SPR chip using amine coupling at three different surface densities. The Fabs were serially diluted 3-fold, with an initial concentration of 1 μM. Binding studies were run on a ProteOn system using a GLM sensor chip in 10 mM HEPES, pH 7.4, 150 mM NaCl, 0.01% Tween-20, and 0.1 mg/ml BSA at 25° C. The response data from each surface was globally fit to determine the binding constants.

[2] = target: T1, recombinant human DLL4 (Cat# …); assay: ELISA, DLL4 coated, Fab 25 nM
Method: (§1) The plate was blocked by adding 1% BSA in Tris-buffered Saline Tween (TBST) and incubating for 1 hour at room temperature followed by washing 2 times with 150 μl TBST. A Fab antibody was serially diluted in 1% BSA in PBS. A 50 μl aliquot of each serial dilution was added, in triplicate, to each well and the plate was incubated for 1 hour at room temperature followed by washing 2 times with TBST. 50 μl of either goat anti-human kappa HRP conjugated secondary antibody (Cat # A7164-1 mL, Sigma-Aldrich) or goat anti-human lambda HRP conjugated secondary antibody (Cat # L1645-1 ml, Sigma-Aldrich), diluted 1:1000 in 1% BSA in PBS, was added to each well and the plate was incubated for 30 minutes at room temperature followed by washing 3 times with 200 μl TBST. Finally, 50 μl TMB one-component reagent (Cat # TMBW-1000-01, BioFax) was added and allowed to develop for 2 minutes at room temperature. The reaction was immediately halted by the addition of 50 μl 0.5M H₂SO₄ and the absorbance at 450 nm was measured using an ELISA plate reader.

[3] = target: T1, recombinant human DLL4 (Cat# …); assay: ELISA, DLL4 coated, Fab 100 nM
Method: (§2) In this example, an ELISA binding assay was used to assess the dose-dependent binding of Fab antibodies to recombinant human DLL4 and recombinant mouse DLL4.
as §1

[4] = target: T1, recombinant human DLL4 (Cat# …); assay: ELISA, DLL4 coated, Fab 50 nM
Method: as §2, §1

[5] = target: T1, recombinant human DLL4 (Cat# …); assay: ELISA, DLL4 coated, Fab 12.5 nM
Method: as §2, §1

Row | Binder | Kd [1] [µM] | koff [1] [s⁻¹] | kon [1] [M⁻¹ s⁻¹] | ELISA absorbance at 450 nm [2] [A450] | ELISA absorbance at 450 nm [3] [A450] | ELISA absorbance at 450 nm [4] [A450] | ELISA absorbance at 450 nm [5] [A450]
1 | Fab VH1-46_IGHD6-6*01_IGHJ1*01 S102A/S103P/S104F/H111F G56H & L6_IGKJ1*01 (Fab, V domains shown, Fab made in E. coli: VH on CH1 with His6 and Flag tags (Plasmid A), VL on kappa CL (Plasmid C); also called H: APFF G56H & L: wt) VH: QVQLVQSGAEVKKPGASVKVSCKASGYTFTSYYMHWVRQAPGQGLEWMGIINPSGHSTSYAQKFQGRVTMTRDTSTSTVYMELSSLRSEDTAVYYCAREEYAPFSAEYFQFWGQGTLVTVSS VL: not shown | 0.0327 | 0.0101 | 351000 |  |  |  | 
2 | Fab VH5-51_IGHD5-18*01>3_IGHJ4*01 & V3-4_IGLJ1*01 (Fab, V domains shown, Fab made in E. coli: VH on CH1 with His6 and Flag tags (Plasmid A), VL on lambda CL (Plasmid E); also called wildtype; parent) VH: EVQLVQSGAEVKKPGESLKISCKGSGYSFTSYWIGWVRQMPGKGLEWMGIIYPGDSDTRYSPSFQGQVTISADKSISTAYLQWSSLKASDTAMYYCARRGYSYGYDYFDYWGQGTLVTVSS VL: QTVVTQEPSFSVSPGGTVTLTCGLSSGSVSTSYYPSWYQQTPGQAPRTLIYSTNTRSSGVPDRFSGSILGNKAALTITGAQADDESDYYCVLYMGSGISYVFGTGTKVTVL |  |  |  | 0.18 | 0.17 | 0.16 | 0.17
3 | Fab VH5-51_IGHD5-18*01>3_IGHJ4*01 G100K/G104T G24T/S28R/G35V & V3-4_IGLJ1*01 V91L/S96P S52K (Fab, V domains shown, Fab made in E. coli: VH on CH1 with His6 and Flag tags (Plasmid A), VL on lambda CL (Plasmid E); also called H: KT TRV & L: LP S52K) VH: EVQLVQSGAEVKKPGESLKISCKTSGYRFTSYWIVWVRQMPGKGLEWMGIIYPGDSDTRYSPSFQGQVTISADKSISTAYLQWSSLKASDTAMYYCARRKYSYTYDYFDYWGQGTLVTVSS VL: QTVVTQEPSFSVSPGGTVTLTCGLSSGSVSTSYYPSWYQQTPGQAPRTLIYKTNTRSSGVPDRFSGSILGNKAALTITGAQADDESDYYCLLYMGPGISYVFGTGTKVTVL |  |  |  | 0.79 | 1.23 | 1.03 | 0.56
4 | Fab VH5-51_IGHD5-18*01>3_IGHJ4*01 G100K/G104T G24T/S28R/G35V & V3-4_IGLJ1*01 V91L/S96P S52F (Fab, V domains shown, Fab made in E. coli: VH on CH1 with His6 and Flag tags (Plasmid A), VL on lambda CL (Plasmid E); also called H: KT TRV & L: LP S52F) VH: EVQLVQSGAEVKKPGESLKISCKTSGYRFTSYWIVWVRQMPGKGLEWMGIIYPGDSDTRYSPSFQGQVTISADKSISTAYLQWSSLKASDTAMYYCARRKYSYTYDYFDYWGQGTLVTVSS VL: QTVVTQEPSFSVSPGGTVTLTCGLSSGSVSTSYYPSWYQQTPGQAPRTLIYFTNTRSSGVPDRFSGSILGNKAALTITGAQADDESDYYCLLYMGPGISYVFGTGTKVTVL |  |  |  | 0.49 | 0.99 | 0.69 | 0.42
5 | Fab VH5-51_IGHD5-18*01>3_IGHJ4*01 G100K/G104T G24T/S28R/G35V & V3-4_IGLJ1*01 V91L/S96P S52H (Fab, V domains shown, Fab made in E. coli: VH on CH1 with His6 and Flag tags (Plasmid A), VL on lambda CL (Plasmid E); also called H: KT TRV & L: LP S52H) VH: EVQLVQSGAEVKKPGESLKISCKTSGYRFTSYWIVWVRQMPGKGLEWMGIIYPGDSDTRYSPSFQGQVTISADKSISTAYLQWSSLKASDTAMYYCARRKYSYTYDYFDYWGQGTLVTVSS VL: QTVVTQEPSFSVSPGGTVTLTCGLSSGSVSTSYYPSWYQQTPGQAPRTLIYHTNTRSSGVPDRFSGSILGNKAALTITGAQADDESDYYCLLYMGPGISYVFGTGTKVTVL |  |  |  | 0.73 | 1.09 | 0.91 | 0.5
6 | Fab VH5-51_IGHD5-18*01>3_IGHJ4*01 G100K/G104T G24T/S28R/G35V & V3-4_IGLJ1*01 V91L/S96P S52Y (Fab, V domains shown, Fab made in E. coli: VH on CH1 with His6 and Flag tags (Plasmid A), VL on lambda CL (Plasmid E); also called H: KT TRV & L: LP S52Y) VH: EVQLVQSGAEVKKPGESLKISCKTSGYRFTSYWIVWVRQMPGKGLEWMGIIYPGDSDTRYSPSFQGQVTISADKSISTAYLQWSSLKASDTAMYYCARRKYSYTYDYFDYWGQGTLVTVSS VL: QTVVTQEPSFSVSPGGTVTLTCGLSSGSVSTSYYPSWYQQTPGQAPRTLIYYTNTRSSGVPDRFSGSILGNKAALTITGAQADDESDYYCLLYMGPGISYVFGTGTKVTVL |  |  |  | 0.56 | 0.9 | 0.72 | 0.41

— patent US20110318339A1 (FABRUS, published 2011)
